From US11236354B2, “Glyphosate-n-acetyltransferase (GLYAT) sequences and methods of use” (PIONEER HI-BRED INTERNATIONAL, INC., priority 2013, dated 2022)

Experiments:
[1] = system: N[C@@H](CC(=O)O)C(=O)O; assay: cells, lysate or membranes named; conditions: 37.0 °C
[2] = system: O=C(O)CNCP(=O)(O)O; assay: cells, lysate or membranes named; conditions: 37.0 °C
[3] = system: O=C(O)CNCP(=O)(O)O; assay: Substrate saturation kinetic analysis of purified GLYAT; assay type: biochemical; conditions: other: SEQ ID NO:26, pH 7.0, non-varied substrate saturating, 37.0 °C
Experimental: (§1) E. coli cultures in LB or 2×YT were grown overnight at 37° C. to saturation. The cells were used as a 2% inoculum into fresh media. When OD reached 0.6, IPTG was added to 0.2 mM and growth was continued for at least 6 hours. Cells were harvested by centrifugation and stored at −80° C. Cells were lysed with BPER (Pierce) containing 1 mM dithiothreitol, 0.2 mg/ml lysozyme, 2 mg/ml protease inhibitor cocktail (Sigma bacterial cell cocktail, P8465) and endonuclease. Lysate supernatants were passed through a column of NHS-activated Agarose (Thermo, #26197) derivatized with coenzyme A. Columns were washed with 25 mM Hepes, pH 7, containing progressively higher concentrations of KCl, then eluted with 25 mM Hepes, 100 mM KCl, 10% ethylene glycol and 1 mM acetyl CoA. Purity as evaluated by polyacrylamide gel electrophoresis was deemed consistently high enough to be assumed to be 100%. Protein concentration was determined with the Bradford assay using a large-scale lot of produced GLYAT protein as standard.
(§2) Kinetic parameters for various substrates were obtained using a range of seven substrate concentrations plus a blank containing none of the varied substrate. The non-varied substrate was present at a saturating concentration. Six-microliter aliquots of 50-fold concentrated stock solutions of the varied substrate were placed in a 96-well assay plate (Greiner BioOne UV-Star). Reactions were started with the addition of 294 ul of 25 mM Hepes, pH 7.0, 100 mM KCL, 10% ethylene glycol, the non-varied substrate and 10 to 200 nM enzyme. Absorbance was monitored for one minute with a Spectramax 384 Plus plate reader (Molecular Devices). If the amino acid present at position 30 (29 if alanine is absent at position 2) was cysteine, absorbance was monitored at 235 nm, which directly detects cleavage of the sulfoester bond of acetyl CoA. If the amino acid present at position 30 (29 if alanine is absent at position 2) was isoleucine, 0.5 mM 5,5′-dithiobis-(2-nitrobenzoic acid), which reacts with the coenzyme A thiol generated in the enzyme catalyzed reaction, was included in the reaction mix and absorbance was monitored at 412 nm. Initial rates were processed by the Softmax software to obtain kinetic parameters, using the double-reciprocal transformation.
The sequences with the new substitutions were derived through a combination of saturation mutagenesis of an already fit protein (SEQ ID NO:26) and an effective screening cascade as a means of identifying the improved genes (Examples 1-2). Regions in which novel changes are concentrated include helix H2a (positions 23 and 25-29) and the hairpin formed by strands B6 and B7 (positions 124-144). These two structures are components of the amino substrate binding site. Helix H3, the backbone to which the central beta sheet is anchored, is a region where 24% of the novel substitutions (17 out of 71) disclosed in Table 4 are concentrated into 11% of the positions (16 out of 146). None of those are near enough to the active site to influence substrate specificity directly. In three cases, multiple novel substitutions were discovered immediately or nearly adjacent to conserved amino acids shown previously to contribute to the catalytic mechanism (Siehl D L et. al., J Biol Chem, 282:11446, 2007). The catalytic amino acids for which this is the case are R21, R111, H138 and the nearby positions with multiple substitutions are 23, 112 and 137. The diverse amino acids at these positions may influence the orientation of the neighboring catalytic amino acids so as to selectively optimize catalysis with the preferred substrate, glyphosate.

[4] = system: O=C(O)CNCP(=O)(O)O; assay: as above; assay type: biochemical; conditions: other: SEQ ID NO:7, pH 7.0, non-varied substrate saturating, 37.0 °C
Experimental: as §1
as §2, with “Reactions were started with the addition of 294 ul of 25 mM Hepes, pH 7.0, 100 mM KCL, 10% ethylene glycol, the non-varied substrate and 10 to 200 nM enzyme.” left out, “Initial rates were processed by the Softmax software to obtain kinetic parameters, using the double-reciprocal transformation.” left out

[5] = other: SEQ ID NO:8, pH 7.0, non-varied substrate saturating
[6] = other: SEQ ID NO:3, pH 7.0, non-varied substrate saturating
[7] = other: SEQ ID NO:9, pH 7.0, non-varied substrate saturating
[8] = other: SEQ ID NO:4, pH 7.0, non-varied substrate saturating
[9] = other: SEQ ID NO:2, pH 7.0, non-varied substrate saturating
[10] = other: SEQ ID NO:6, pH 7.0, non-varied substrate saturating
[11] = other: SEQ ID NO:1, pH 7.0, non-varied substrate saturating
[12] = other: SEQ ID NO:5, pH 7.0, non-varied substrate saturating
[13] = other: SEQ ID NO:10, pH 7.0, non-varied substrate saturating

GLYAT variant SEQ ID NO:8 (derived from SEQ ID NO:1 and 2) (Bacillus licheniformis DSM 13 = ATCC 14580; A28V/D131E/E119K/E14D/E65Q/E67K/E68K/E83D/G37R/G38S/I132T/I135A/I15L/I53V/I91V/K101R/K144R/K58Q/L105M/L106I/L26I/L36T/L97I/M75V/N8S/R47G/R92K/T89S/V114A/Y130F/Y45F)
Km [1, 5]: 60000 µM | kcat [1, 5]: 1.42 s⁻¹ | kcat/Km [1, 5]: 23.5 M⁻¹ s⁻¹ | Km [2, 5]: 390 µM | kcat [2, 5]: 11.4 s⁻¹ | kcat/Km [2, 5]: 29650 M⁻¹ s⁻¹

GLYAT variant SEQ ID NO:3 (derived from SEQ ID NO:1 and 2) (Bacillus licheniformis DSM 13 = ATCC 14580; A28V/D131E/E119K/E14D/E65Q/E67K/E68K/E83D/G37R/I132T/I135V/I15L/I19V/I2L/I53V/I91V/K101R/K144R/K58Q/L105M/L106I/L26I/L97I/M75V/R47G/R92K/T89S/V114A/Y130F/Y45F)
Km [1, 6]: 35100 µM | kcat [1, 6]: 2.72 s⁻¹ | kcat/Km [1, 6]: 77.8 M⁻¹ s⁻¹ | Km [2, 6]: 600 µM | kcat [2, 6]: 11.6 s⁻¹ | kcat/Km [2, 6]: 19320 M⁻¹ s⁻¹

GLYAT variant SEQ ID NO:9 (derived from SEQ ID NO:1 and 2) (Bacillus licheniformis DSM 13 = ATCC 14580; A28V/D131E/E119K/E14D/E65Q/E67K/E68K/G37R/G38S/I132T/I135A/I15L/I19V/I53V/I91V/K101R/K144R/K58Q/L105M/L26I/L97I/M75V/R47G/R92K/T89S/V114A/Y130F/Y45F)
Km [1, 7]: 78700 µM | kcat [1, 7]: 2.58 s⁻¹ | kcat/Km [1, 7]: 33.3 M⁻¹ s⁻¹ | Km [2, 7]: 250 µM | kcat [2, 7]: 11.6 s⁻¹ | kcat/Km [2, 7]: 45430 M⁻¹ s⁻¹

GLYAT variant SEQ ID NO:4 (derived from SEQ ID NO:1 and 2) (Bacillus licheniformis DSM 13 = ATCC 14580; D131E/E14D/E65Q/E67K/E68K/G37R/G38S/I132T/I135A/I15L/I19V/I53V/I91V/K101R/K144R/K58Q/L105M/L26I/L36T/L97I/M75V/R47G/R92K/T33S/T89S/V114A/Y130F/Y31F/Y45F)
Km [1, 8]: 78300 µM | kcat [1, 8]: 2.27 s⁻¹ | kcat/Km [1, 8]: 29 M⁻¹ s⁻¹ | Km [2, 8]: 1960 µM | kcat [2, 8]: 26.88 s⁻¹ | kcat/Km [2, 8]: 13800 M⁻¹ s⁻¹

GLYAT (glyphosate-N-acetyltransferase), parent, SEQ ID NO:2 (Bacillus licheniformis DSM 13 = ATCC 14580; A28V/D131E/E119K/E63D/E65Q/E67Q/E68K/E83D/E96Q/G37R/I132T/I135V/I15L/I2L/K101R/K144R/K58Q/L105M/L97I/R18K/T89S/V114A/Y130F/Y45F)
Km [1, 9]: 47600 µM | kcat [1, 9]: 0.887 s⁻¹ | kcat/Km [1, 9]: 18.7 M⁻¹ s⁻¹ | Km [2, 9]: 1380 µM | kcat [2, 9]: 4.52 s⁻¹ | kcat/Km [2, 9]: 3270 M⁻¹ s⁻¹

GLYAT (glyphosate-N-acetyltransferase), parent of saturation mutagenesis (already fit protein), SEQ ID NO:26 (derived from SEQ ID NO:1 and 2) (Bacillus licheniformis DSM 13 = ATCC 14580; A28V/C29I/D131E/E14D/E65Q/E67K/E68K/E83D/G37R/I132T/I135A/I15L/I19V/I53V/I91V/K101R/K144R/K58Q/L105M/L26I/L97I/M75V/R47G/R92K/T89S/V114A/Y130F/Y45F)
Km [3]: 220 µM | kcat [3]: 9.33 s⁻¹ | kcat/Km [3]: 41750 M⁻¹ s⁻¹

GLYAT variant SEQ ID NO:6 (derived from SEQ ID NO:1 and 2) (Bacillus licheniformis DSM 13 = ATCC 14580; A28V/D131E/E119K/E14D/E65Q/E67K/E68K/G37R/I132T/I135A/I15L/I19V/I53V/I91V/K101R/K144R/K58Q/L105M/L106I/L26I/L36T/L97I/M75A/R47G/R92K/T89S/V114A/V4I/Y130F/Y45F/Y46C)
Km [1, 10]: 66800 µM | kcat [1, 10]: 0.183 s⁻¹ | kcat/Km [1, 10]: 2.67 M⁻¹ s⁻¹ | Km [2, 10]: 2240 µM | kcat [2, 10]: 11.2 s⁻¹ | kcat/Km [2, 10]: 5130 M⁻¹ s⁻¹

GLYAT (glyphosate-N-acetyltransferase), parent, SEQ ID NO:1 (Bacillus licheniformis DSM 13 = ATCC 14580; E119R/E14D/E65Q/E67K/E68K/G37R/G38S/I132T/I135V/I15L/I19V/I53V/I91V/K101R/K144R/K58Q/L105M/L106I/L145I/L26I/L36T/L97I/M75V/R47G/R92K/T33S/T89S/V114A/Y130F/Y31F/Y45F)
Km [1, 11]: 32900 µM | kcat [1, 11]: 7.3 s⁻¹ | kcat/Km [1, 11]: 229 M⁻¹ s⁻¹ | Km [2, 11]: 1360 µM | kcat [2, 11]: 24.23 s⁻¹ | kcat/Km [2, 11]: 18000 M⁻¹ s⁻¹

GLYAT variant SEQ ID NO:5 (derived from SEQ ID NO:1 and 2) (Bacillus licheniformis DSM 13 = ATCC 14580; A28V/D131E/E14D/E65Q/E67K/E68K/G37R/I132T/I135A/I15L/I19V/I53V/I91V/K101R/K144R/K58Q/L105M/L106I/L26I/L97I/M75V/R47G/R92K/T89S/V114A/Y130F/Y45F)
Km [1, 12]: 79100 µM | kcat [1, 12]: 3.58 s⁻¹ | kcat/Km [1, 12]: 45.3 M⁻¹ s⁻¹ | Km [2, 12]: 230 µM | kcat [2, 12]: 16.98 s⁻¹ | kcat/Km [2, 12]: 76470 M⁻¹ s⁻¹

GLYAT variant SEQ ID NO:10 (derived from SEQ ID NO:1 and 2) (Bacillus licheniformis DSM 13 = ATCC 14580; A28V/D131E/E14D/E65Q/E67K/E68K/G37R/G38S/H61R/I132T/I135A/I15L/I19V/I53V/I91V/K101R/K144R/K58Q/L105M/L106I/L26I/L97I/M75V/R47G/R92K/T89S/V114A/Y130F/Y45F)
Km [1, 13]: 89300 µM | kcat [1, 13]: 2.48 s⁻¹ | kcat/Km [1, 13]: 28.2 M⁻¹ s⁻¹ | Km [2, 13]: 370 µM | kcat [2, 13]: 11.6 s⁻¹ | kcat/Km [2, 13]: 31680 M⁻¹ s⁻¹

GLYAT variant SEQ ID NO:7 (derived from SEQ ID NO:1 and 2) (Bacillus licheniformis DSM 13 = ATCC 14580; A28V/D131E/E119K/E14D/E65Q/E67K/E68K/E79G/E83D/G37R/G38S/G48A/I132L/I135A/I15L/I19V/I2L/I53V/I91V/K101R/K144R/K58Q/L105M/L106I/L26I/L36T/L97I/M75V/N109F/R47G/R92K/T33S/T89S/V114A/Y130F/Y31W/Y45F)
Km [4]: 800 µM | kcat [4]: 7.13 s⁻¹ | kcat/Km [4]: 8870 M⁻¹ s⁻¹
